The values below come from patent EP4674868A1.

Read-outs that look alike come from different tables or passages of the source.

Experiment [1] deals with human FAP on the surface of CHO-K1 cells (CHO-K1-HuFAP) (human) (UniProt Q12884). Put plainly: FACS, CHO-K1-HuFAP cells. On the technique in general: Flow cytometry measures light scatter and fluorescence of single cells or particles in a stream.
In experiment [2] the target is human 4-1BB on the surface of HEK293 cells (HEK293-Hu4-1BB) (human) (UniProt Q07011). The experiment is described as follows: cell-based or functional assay.
Experiment [3] addresses human CD40 on the surface of HEK293 cells (HEK293-HuCD40) (human) (UniProt P25942). The experiment is described as follows: cell-based or functional assay.
Experiment [4] has as its target human 4-1BB on the surface of HEK293 cells (HEK293-Hu4-1BB) (human) (UniProt Q07011). The experiment is described as follows: FACS, HEK293-Hu4-1BB cells.
Experiment [5] deals with human CD40 on the surface of HEK293 cells (HEK293-HuCD40) (human) (UniProt P25942). The experiment is described as follows: FACS, HEK293-HuCD40 cells.
In experiment [6] the target is human 4-1BB on the surface of HEK293 cells (HEK293-Hu4-1BB) (human) (UniProt Q07011). Put plainly: FACS, HEK293-Hu4-1BB cells. This is another data set of the same source.
Experiment [7] has the same target. The experiment is described as follows: FACS, HEK293-Hu4-1BB cells. This is another data set of the same source.
The target of experiment [8] is human CD40 on the surface of HEK293 cells (HEK293-HuCD40) (human) (UniProt P25942). The experiment is described as follows: cell-based or functional assay. This is another data set of the same source.
For experiment [9] the target is unchanged. Put plainly: FACS, HEK293-HuCD40 cells. The source holds these as a separate data set.
In experiment [10] the target is human 4-1BB on the surface of HEK293 cells (HEK293-Hu4-1BB) (human) (UniProt Q07011). The experiment is described as follows: FACS, HEK293-Hu4-1BB cells. The source holds these as a separate data set.
Experiment [11] shares this target. Put plainly: cell-based or functional assay. This is another data set of the same source.
The target in experiment [12] is human FAP on the surface of CHO-K1 cells (CHO-K1-HuFAP) (human) (UniProt Q12884). The experiment is described as follows: FACS, CHO-K1-HuFAP cells. The source holds these as a separate data set.
For experiment [13] the target is unchanged. The experiment is described as follows: FACS, CHO-K1-HuFAP cells. This is another data set of the same source.

As to IgG1 isotype control (antibody), the Maximum fluorescence value in experiment [1] was determined as 64; in [4], 65; in experiment [5], 62; in experiment [6], 69; in [7], 63; in experiment [9], 61. Also, the Maximum fluorescence value was 67 in experiment [10], 63 in experiment [12] and 62 in [13]. In addition, the figures for the 4-1BB/NF-κB luciferase reporter, CD40-crosslinked, Fold change in Emax in experiment [2] and in [11] were 1.05 fold and 1.06 fold, respectively. The 4-1BB/NF-κB luciferase reporter, FAP-crosslinked, Fold change in Emax in experiment [2] was determined as 1.08 fold; in [11], 1.04 fold. Also, the 4-1BB/NF-κB luciferase reporter, uncrosslinked, Fold change in Emax in [2] amounted to 1.1 fold; in [11], 1.05 fold. The substance further gave a CD40/NF-κB reporter (HEK-Blue CD40L), 4-1BB-crosslinked, Fold change in Emax in experiment [3] of 0.99 fold. In addition, the CD40/NF-κB reporter (HEK-Blue CD40L), FAP-crosslinked, Fold change in Emax in experiment [3] was found to be 0.99 fold. Besides, the CD40/NF-κB reporter (HEK-Blue CD40L), uncrosslinked, Fold change in Emax in experiment [3] worked out at 1 fold; in [8] it was 0.99 fold.
For the substance “RO7300490 (2302(2+1)PG), FAP/CD40 bispecific antibody molecule, control”, in experiment [2], the 4-1BB/NF-κB luciferase reporter, CD40-crosslinked, Fold change in Emax worked out at 1.06 fold; the 4-1BB/NF-κB luciferase reporter, FAP-crosslinked, Fold change in Emax was found to be 1.02 fold; the 4-1BB/NF-κB luciferase reporter, uncrosslinked, Fold change in Emax came to 1.01 fold. In addition, the Maximum fluorescence value in experiment [4] was found to be 1790.
